Reference: FireProtDB (doi:10.1002/pro.5560060808)

Details: Aspergillus oryzae (strain ATCC 42149 / RIB 40), Thermal, DSC, reversible: yes, whole UniProt chain shown
[1] = pH 4.5, Acetic acid-Sodium acetate 0.1 M

B1: Guanyl-specific ribonuclease T1 wild type, P00651 (protein)
chain: MMYSKLLTLTTLLLPTALALPSLVERACDYTCGSNCYSSSDVSTAQAAGYQLHEDGETVGSNSYPHKYNNYEGFDFSVSSPYYEWPILSSGDVYSGGSPGADRVVFNENNQLAGVITHTGASGNNFVECT
With B1 the Tm (pH 3, glycine-HCl 0.1 M) was 52.4 °C, the “heat capacity change of unfolding” value (pH 3, glycine-HCl 0.1 M) was 1.2 kcal/mol/K and the “unfolding enthalpy (calorimetric)” value (pH 3, glycine-HCl 0.1 M) was 99.3 kcal/mol. For the same protein, the Tm (pH 3.5, glycine-HCl 0.1 M) was 54.7 °C, the “heat capacity change of unfolding” value (pH 3.5, glycine-HCl 0.1 M) was 1.44 kcal/mol/K and the “unfolding enthalpy (calorimetric)” value (pH 3.5, glycine-HCl 0.1 M) was 103 kcal/mol. For the same protein, the Tm [1] was 59.2 °C, the “heat capacity change of unfolding” value [1] was 1.17 kcal/mol/K and the “unfolding enthalpy (calorimetric)” value [1] was 109 kcal/mol. For the same protein, the Tm (pH 6, MES 0.1 M) was 62.4 °C, the “heat capacity change of unfolding” value (pH 6, MES 0.1 M) was 1.39 kcal/mol/K and the “unfolding enthalpy (calorimetric)” value (pH 6, MES 0.1 M) was 112 kcal/mol.
